Changes are numbered by the printed parent chain.

We go through 2 molecules from US20160046725A1 (PIERRE FABRE MEDICAMENT, published 2016).

The target in this test is T1, recombinant mouse Axl-Fc protein (R and D Systems, cat N° 854-AX/CF) (mouse, UniProt Q00993 19-445).
T1 construct: extracellular domain; Bought construct; also called rmAxl-Fc; murine Axl ECD domain; not shown: Fc portion of the bought fusion (detected by anti-human IgG Fc)
T1 sequence (looked up): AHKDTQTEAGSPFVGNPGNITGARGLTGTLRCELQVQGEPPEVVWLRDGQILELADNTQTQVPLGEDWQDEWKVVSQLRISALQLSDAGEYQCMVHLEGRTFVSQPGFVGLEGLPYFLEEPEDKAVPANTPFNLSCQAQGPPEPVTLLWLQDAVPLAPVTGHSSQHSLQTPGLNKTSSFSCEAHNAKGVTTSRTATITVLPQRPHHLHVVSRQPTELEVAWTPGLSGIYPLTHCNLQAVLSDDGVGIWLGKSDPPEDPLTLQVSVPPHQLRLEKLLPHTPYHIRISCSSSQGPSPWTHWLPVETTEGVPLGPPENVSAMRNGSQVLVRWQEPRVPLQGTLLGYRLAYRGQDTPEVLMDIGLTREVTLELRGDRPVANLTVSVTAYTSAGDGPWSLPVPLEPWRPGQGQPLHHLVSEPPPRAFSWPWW
In words: ELISA on coated rmAxl-Fc. The protocol: Briefly, the recombinant mouse Axl-Fc (R and D Systems, cat N° 854-AX/CF) proteins were coated overnight at 4° C. to Immulon II 96-well plates and, after a 1 h blocking step with a 0.5% gelatine solution, the 110D7, 1003A2, 1024G11, purified antibodies, respectively, were added for an additional 1 h at 37° C. at starting concentration of 5 μg/ml (3.33 10⁻⁸ M). Then ½ serial dilutions were done over 12 columns. Then plates were washed and a goat anti-mouse (Jackson) specific IgG HRP was added for 1 h at 37° C. Reaction development was performed using the TMB substrate solution. The commercial mouse anti-Axl Mab 154 antibody is also used in parallel. Coating controls are performed in presence of a goat anti-human IgG Fc polyclonal serum coupled with HRP (Jackson, ref 109-035-098) and in presence of a HRP-coupled anti-Histidine antibody (R and D Systems, ref: MAB050H). No specific binding is observed in absence of primary antibody (diluant).

B1: 1024G11 anti-Axl monoclonal antibody (antibody, V domains shown)
VH: EVKLVESGGGLVQPGGSLNLSCAASGFTFSSYSMSWVRQTPEKRLEWVAFISNGGGRTYYPDTVKGRFTFSRDNARNTLYLQMSSLNSEDTAMYFCARGTTESYYAMDYWGQGTSVTVSS
VL: DIVMTQSHKFMSTSVGDRVSITCKASQDVITAVAWYQQKPGQSPKLLIYWASTRHTGVPDRFTGSGSGTDYTLTISSVQAEDLALYFCQQHLSTPLTFGAGTKLELK
notes: Murine monoclonal antibody purified from a hybridoma; a mIgG1 isotype control (9G4) is used beside it; also called monoclonal antibody 1024G11 derived from the hybridoma I-4501
With B1, the binding result is recorded as “no binding”.

B2: 1003A2 anti-Axl monoclonal antibody (antibody, V domains shown)
VH: B1 VH with N19K, S30N, F50Y, V64I, F70L, A75D, N87K, F95Y, M107L
VL: B1 VL with V15L, V19I, T72N, F87Y, L92F
notes: Murine monoclonal antibody purified from a hybridoma; a mIgG1 isotype control (9G4) is used beside it; also called monoclonal antibody 1003A2 derived from the hybridoma I-4499
Regarding B2, the binding result is reported as “no binding”.
